Key:
[1] = target: urea transporter ApUT from Actinobacillus pleuropneumoniae (Actinobacillus pleuropneumoniae); experiment: electron microscopy of negatively stained 2D crystals
[2] = target: urea transporter ApUT from Actinobacillus pleuropneumoniae (Actinobacillus pleuropneumoniae); experiment: native gel or EMSA
[3] = target: urea transporter ApUT from Actinobacillus pleuropneumoniae (Actinobacillus pleuropneumoniae); experiment: cross-linking

Measured: stoichiometry N

urea transporter ApUT from Actinobacillus pleuropneumoniae (from UniProt A0A2Z6AQW9 1-300) (natural protein)
2: all assays above

— article PMC2682783
